From a protein production outcome set (Wang et al. 2014) come the findings set out here.
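Further: failed if final PepcDB status was selected cloned or expressed and not failed if soluble or beyond.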

The series in a line: label from the status in PepcDB records.
“MEQRRVTDFFARRRPGPPRIAPPKLACRTPSPARPALRAPASATSGSRKRARPPAAPGRDQARPPARRRLRLSVDEVSSPSTPEAPDIPACPSPGQKIKKSTPAAGQPPHLTSAQDQDTISELASCLQRARELGARVRALKASAQDAGESCTPEAEGRPEEPCGEKAPAYQRFHALAQPGLPGLVLPYKYQVLAEMFRSMDTIVGMLHNRSETPTFAKVQRGVQDMMRRRFEERNVGQIKTVYPASYRFRQERSVPTFKDGTRRSDYQLTIEPLLEQEADGAAPQLTASRLLQRRQIFSQKLVEHVKEHHKAFLASLSPAMVVPEDQLTRWHPRFNVDEVPDIEPAALPQPPATEKLTTAQEVLARARNLISPRMEKALSQLALRSAAPSSPGSPRPALPATPPATPPAASPSALKGVSQDLLERIRAKEAQKQLAQMTRCPEQEQRLQRLERLPELARVLRSVFVSERKPALSMEVACARMVGSCCTIMSPGEMEKHLLLLSELLPDWLSLHRIRTDTYVKLDKAADLAHITARLAHQTRAEEGL”: the protein production entry is on record as “failed”.
On to “MDGEAFEISLLDGEEDRFGGTVVNLMEVESMTIGDFDSKLDVSLKAWKDQGKKGIWIKLPSELSSLVDTAIKKGFTYHHAENEYVMLTFWLPEPPSTLPCNASHRIGIGAFVLNKNGEMLVVQENSGYFKDKNVWKVPTGTIKEGESIWAGAVREVKEETDIDAEFVEVLSFMESHQAVWQRKTDIFFVCELEARTFEIQKQDSEIHAAKWMPVEEYVNQPYHNKEGNEMFKLIANICLKRSREKYTGFVLTTNSAKKSLYCSVDHANLLKETADQASTSLSD”, for which the protein production result is listed as “failed”.
For the sequence “MAAYGLYTHIASNKLRSMLLLAGLFALVYVLVYAGALVAEVVINGNETVAFYLSHAFLDLKVAAPVATVVTAVWVVIAYFFHQSMIDAVTGGHDVTRKEEPRLYNLLENLCISRGITMPKLKIMESPALNAFATGLNPRQYSITVTTGLLNALNDKEIEAVLGHELTHIKNGDVQLMVVAVIIAGVVGFFGELFFRLFTNLSWNSGGSWSSGSSSSRSSSSSSDSKNSGGGAVIVIIIAVVLIVVAWLMSQVVKLALSRSREYLADAGSVELTKDPDAMISALRKIENRGELPGATSAVMELCVDNPREGFADLFATHPSVQSRVDALVKFAGGHDPGPLPDPTDETEQPEAQGAPQDAPPPLSQRPWGDAAGPANPPPVPAPSPSGTTAGNPIGNPMGPWGRH”, the protein production result is recorded as “failed”.
In the case of “MVIRVYIASSSGSTAIKKKQQDVLGFLEANKIGFEEKDIAANEENRKWMRENVPENSRPATGYPLPPQIFNESQYRGDYDAFFEARENNAVYAFLGLTAPPGSKEAEV”, the protein production result was “not failed”.
Turning to “MRMLAHAIKVWNENTGALSHLEIEPLPHQIHLVHHILASGNFNWLIADDVGLGKTIETGMLLHALQQRDLAKRILLITPAGLTKQWQEELYHKFKLEDFEIYGEDFFINEPRQWKMHDCVIGSMDRLKQVDHLESLLQAEPWDLVIFDEGHRLSRRQYGQKLDSSERYDLAKNLRSQTKHMLLLSATPHQGMQDKFVALLELLRPERR”, the protein production result was “failed”.
As for “MVYVDPDRFDELVAEALDGIPEEFARAMRNVAVFVEDEPDDPELLGLYVGIPLTERTTAYGGVLPDRIIIYRNTICALCETESEVIDEVRKTVVHEIAHHFGIDDERLHELGY”, the protein production entry was “not failed”.
For “MADKVYEATAEAKGYNEEGVPIVLTVKAIKKDGKVVVTDIVAKHQETDKIGAVAIEKLIEEVKTKQNYNKLDSVAGATSTSAGFRRAIRNAVKDIEKQNLEHHHHHH” the value was “not failed”; for “MLSIFYWLLAIFLINLGIFIFVLTHERRSMWAGLTLTSTLMFLAFLAIDALIIIEAQFPQQHQIIANLLLLASVGVALFILVFVFLLIIIFLYNGIKILIKEGTKWTNFLSLGTGIAIILLIFAYPVLGRSTSAPWFRFIYLFLSMSIFYIIFIMVMYTLTSWLNLININTKKLNYIVVLGAGLLGKKVTPLLASRINRGIEIYHKNPDSKLIMSGGQGPDEEIPESHAMAAYAEEHGVPKSDIIIEDRSKTTNQNLKFSHQLMKPNSTFCIVTNSYHVYRALVLAKRQGLQCIGYGAKTKWYFTLNAFIREFIAYLVITKKMQCSIIGSLAVINIIFAALYYASTQFFS”, “failed”; for “RDSLFICAVATTETSRIPGITGAGASPELTEYTPAADVELIVHDAPRCLPEIPQTIVEGEAAPTPAVITKAALELAEVPFMVADAGASVKPDVPYININSEPGGDIRTGRAVTEPQRIYERGLMVGRTLSSLTEHLVVGESTPAGTTTALGVLTALGYDADFRVSASMPHNPHDLKREVVMAGLSNAGIEKGDCSREPFRAVEAVGDPMIPAVAGICMGSTVPVTLAGGTQMTAVCALMRAIDPDFDFSDTAIATTIFVAEDSTSDINRIAEQIGDIDIYVVDPDFGSASHRGLHEYLNGSVKEGVGAGGAMLLALLH”, “failed”.
As to “MTISNKTLTAAAAGLAAVLAVLLVPALAGQSAHTGHTMPAHTPPAQTAPAAQKAGAQALPVTVQGATVAAVPPSIRDTAAYMTLTNKSDQPIKLVGAATPLATSPMLMTTTHSGGMAGMKMVPWLTIPARGTLTLQRDGDHVMLMGLKRPLKVGETVNITLKATDGRTLNVAATVKKN”, the protein production entry is “not failed”.
Consider “GAPLKAVSAFAPPMKTQDFNLYTNEVHAKFDDYDLGMEYARQHNKPVMLDFTGYGCVNCRKMELAVWTDPKVSSIINNDYVLITLYVDNKTPLTEPVKIMENGTERTLRTVGDKWSYLQRVKFGANAQPFYVLIDNEGNPLNKSYAYDEDISKYINFLQTGLENYRKEK”, for which the protein production entry is “not failed”.
Turning to “MEIRTFLERALKEDLGHGDLFERVLEKDFKATAFVRAKQEGVFSGEKYALELLEMTGIECVQTIKDKERFKPKDALMEIRGDFSMLLKVERTLLNLLQHSSGIATLTSRFVEALNSHKVRLLDTRKTRPLLRIFEKYSVLNGGASNHRLGLDDALMLKDTHLRHVKDLKSFLTHARKNLPFTAKIEIECESFEEAKNAMNAGADIVMCDNLSVLETKEIAAYRDAHYPFVLLEASGNISLESINAYAKSGVDAISVGALIHQATFIDMHMKMA”, the protein production entry is recorded as “failed”.
As to “MNRVEPPYDVKEALVFTQKMAQLSKALWKSIEKDWQQWLKPYDLNINEHHILWIAYQLNGASISEIAKFGVMHVSTAFNFSKKLEERGYLRFSKRLNDKRNTYVQLTEEGTEVFWSLLEEFDPTRNAVFKGSQPLYHLFGKFPEVAEMMCMIRHIYGDDFMEIFETSLTNIDNDFESVNGKLKKKAKDSAADEPAEELEPVNS”, the protein production entry is reported as “not failed”.
On to “MRGPAVLLTVALATLLAPGAGAPVQSQGSQNKLLLVSFDGFRWNYDQDVDTPNLDAMARDGVKARYMTPAFVTMTSPCHFTLVTGKYIENHGVVHNMYYNTTSKVKLPYHATLGIQRWWDNGSVPIWITAQRQGLRAGSFFYPGGNVTYQGVAVTRSRKEGIAHNYKNETEWRANIDTVMAWFTEEDLDLVTLYFGEPDSTGHRYGPESPERREMVRQVDRTVGYLRESIARNHLTDRLNLIITSDHGMTTVDKRAGDLVEFHKFPNFTFRDIEFELLDYGPNGMLLPKEGRLEKVYDALKDAHPKLHVYKKEAFPEAFHYANNPRVTPLLMYSDLGYVIHGRINVQFNNGEHGFDNKDMDMKTIFRAVGPSFRAGLEVEPFESVHVYELMCRLLGIVPEANDGHLATLLPMLHTESALPPDGRPTLLPKGRSALPPSSRPLLVMGLLGTVILLSEVA”, for which the protein production entry is “failed”.
For “MTPHPRLSIGLPVYNGEEYLAESLDALLGQTYENFELVISDNASTDGTRDICRRYAAQDSRIRYIRLPRNIGAAPNHNYVFTECRGELFKWASHDDLYARDLLRSCVAALDERPEVVLAHAGQAVIDGDGKVKVPYEYGLATDSPRAPERFRSLLFEPGGDDFYGVMRSAMLRRVKPHDSYHHADRTFVAEITLHGPFHQVPELLYFRRDHPTRAERANPSKRSRCVNLDPRRAGPLHPTPRLLAEYVWGFASAIGRAPLSSADRRACHRHLAAWLTSRVRPGVGERVEDRAPVDPDRLTVSVDDLVAGREGRQALEHHHHHH” the value was “failed”; for “MPEIEIAAGSGDNNDALFGKYELGKLLGCGAFAKVFHARDRRTGQSVAVKILNKKKLLTNPALANNIKREISIMRRLSHPNIVKLHEVMATKSKIFFAMEFVKGGELFNKISKHGRLSEDLSRRYFQQLISAVGYCHARGVYHRDLKPENLLIDENGNLKVSDFGLSALTDQIRPDGLLHTLCGTPAYVAPEILSKKGYEGAKVDVWSCGIVLFVLVAGYLPFNDPNVMNMYKKIYKGEYRFPRWMSPDLKRFVSRLLDINPETRITIDEILKDPWFVRGGFKQIKFHDDEIEDQKVESSLEAVKSLNAFDLISYSSGLDLSGLFAGCSNSSGESERFLSEKSPEMLAEEVEGFAREENLRMKKKKEEEYGFEMEGQNGKFGIGICISRLNDLLVVVEARRRGGDGDCYKEMWNGKLRVQLIRVCDQTSSTNAAI”, “failed”.
For the sequence “MKKIGIIGAGGIARAHATALSTIKNAELVGVYDINQQNAESFVKTFGGKSFENVDELIDASEGLIVASPNFCHKEHALQALGKHKHVLCEKPMAISLEEASIMKDTAERLSVRASMGFNYRYLSYVNILKSLIINNELGNILSIKVHFKKNSALRRKKFTWRDDANSKKTSGSLGDLGIHLIDMVWYLFESDFITESVRAKMNTNVKTKEDKQVLVDDYAEIYGQLRNKVFVNIITSKCSVPEDCGFSIEVVGHKKEFKYHTGNPHVYKLIDGLNVVDCPVPQSLLNDPPNEFYGWADSFRSELINWIASTQNDWVEIPSFSDGFRSQEVLEMFFEKDSNSQPLEHHHHHH”, the protein production entry is “not failed”.
As to “MLKHCGEFHIALKHLQLALLYTYPSTFSELQVKFQIAHLYEVQNKHKAAKDGYEFLLNEKNISLELKADVYRQLGWMYHCVECLGEKKEREANALNFLQKSIEADPKSGQSLYLLGRCYAGINKVHDAFLAYRNSVEKSEGNADTWCSIGVLYQQQNQPTDALQAYICAVQLDKDHKAAWTNLGILYESCGQLRDAYACYLNATKQISFQKSSLIRKKQAIRMKKDTIGLSKGLSQRITFLEGQLSQAPLPSITSKRRQLCSIEEAWNLPISLEMNSRQQQTAQMLPRQVTKQSPVQGPPPPYPHSQLSQSPIPSKRIKEDGTSQQEVTQNNSQTSAQNLINISESLNQRNFNAMPESNKSSEQSVLDTFDDISNDIYKQNESIKLERLSQDALSNNEDSRHDFIGGDNADISTTFKIQMDSKQLMVAVKLLPIDEPPVHCTILQVNAPPPSPPDCPPQKLTRDQLLPPTPSVHLENKKHAFSPQLQEFCLKHPIAVVRGLAGVLKLDLGLFSTKTLVEANPDHSVEVRTQVHQSPDENWDTSQGKRVWACISHRSHTTIAKYAQYQASSFQDSLKLILPQDESDKGFPGSQAMSDSDSKDSVSNSNIVLKRKKHKINSKMLRFGTNVDLSDEKKWKPQLTELQKLPAFARVISAANMLSHVGHVILGMNTVQLYMKVPGSRTPGHQENNNFCSININIGPGDCEWFAVPDAYWGGVHNLCEKNNISYLHGSWWPVLEDLYKENIPVYRFIQKPGDLVWVNAGCVHWVQSIGWCNNIAWNVGPLTARQYSLAIERYEWNKVQAFKSIVPMVHLSWNLARNIKVSDTKLFELIKMCLLQTLKNVLHIQEYVKSKGVEIRFNGRGKNEASHYCGQCEVEVFNVLFIKEQEKRHVVHCLSCALKLSPSLQGIVCLEEYRLSELQRVYDSFTLHRTQGLAYTQ”, the protein production entry is listed as “failed”.
As for “LKPLSIIYNGKSGFHASDKEGVYEQIMTLFTRYDFEIQVFELNEKITFDELMEQVLLRHLNLNTSEYKGVIVAAGGDGTLNAVASRLVDTPIPMGILPLGTFNYVARVLNIPLDLLAAAEVIADGTIRSVHVATINDRIYLNNASLG”, the entry is “failed”; as for “MRLPPRLALSVLAGRGPSCILGSGAATRKDWQERNRRSFSDLYTQPLPDCDFEESSSWTHKSRSEPTRHIACKKSARNLVRDLLEHQNPSHQLILECNPGPGILTGALLKAGARVVAFESEKMFIPHLESLRKNADGELQVVHCDFFKIDPRYQELVRPDVNSHTIFQNLGIKAVPWSAGVPIKVFGILPNKHERRLLWKILFDLYSCESIYRYGRVELNMFISEKEFRVRC”, “failed”.
